The target of experiment [1] is T1, human CD70 extra-cellular domain (ECD) linked to His tag (human, UniProt P32970 39-193).
T1 construct: extracellular domain; also called Hu CD70; HU CD70; not shown: His tag
T1 sequence (looked up): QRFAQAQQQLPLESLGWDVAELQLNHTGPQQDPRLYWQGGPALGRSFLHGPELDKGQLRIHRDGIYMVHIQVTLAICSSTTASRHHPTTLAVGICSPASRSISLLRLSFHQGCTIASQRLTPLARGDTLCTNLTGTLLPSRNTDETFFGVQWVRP
Description: BLI (Octet RED), antibody on anti-human Fc tips, CD70 ECD-His at 100 nM. The protocol: (§1) Recombinant proteins consisting of human, rat, or mouse CD70 extra-cellular domain (ECD) linked to His tag was purchased (from ACRO systems). 69A7 and 2E7 (20 nM) were immobilized on anti-human IgG Fc biosensor tips (ForteBio). Binding assays using one concentration (100 nM) of recombinant protein in solution were performed using Octet RED (ForteBio). Association time was set at 180s and dissociation time was set at 300s. Binding affinity was calculated using ForteBio Data Acquisition 6.3 software. Affinity was derived by fitting the kinetic data to a 1:1 Langmuir binding model utilizing global fitting algorithms. […] 2E7 had no cross-reactivity to rat or mouse CD70 (Table 10).
Background: BLI is a label-free optical method that tracks binding on a fibre tip over time.

Experiment [2] addresses T2, rat CD70 extra-cellular domain (ECD) linked to His tag (rat).
T2 construct: extracellular domain
Description: BLI, global fit, cell repeated in each row; response below range of quantification, filing reports no cross-reactivity. As for the experimental part: as §1

Experiment [3] deals with T3, mouse CD70 extra-cellular domain (ECD) linked to His tag (mouse, UniProt O55237 45-195).
T3 construct: extracellular domain; also called MS CD70; not shown: His tag
T3 sequence (looked up): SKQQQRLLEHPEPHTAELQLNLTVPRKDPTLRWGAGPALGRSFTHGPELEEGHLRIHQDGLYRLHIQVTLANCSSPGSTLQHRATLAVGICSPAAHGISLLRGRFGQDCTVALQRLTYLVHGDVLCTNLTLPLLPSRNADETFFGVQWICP
Described as above. The protocol: as §1

In experiment [4] the target is T4, human CD70 expressed on the cell surface of tumor cell lines (human, UniProt P32970 1-193).
T4 construct: whole, on cells
T4 sequence (looked up): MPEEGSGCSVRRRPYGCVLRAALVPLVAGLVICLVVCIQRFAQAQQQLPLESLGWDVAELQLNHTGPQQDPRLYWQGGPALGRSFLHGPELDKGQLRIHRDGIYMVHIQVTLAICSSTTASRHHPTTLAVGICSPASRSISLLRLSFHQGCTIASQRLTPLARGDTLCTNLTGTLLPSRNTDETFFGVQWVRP
Description: flow cytometry on DBTRG-05MG cells, PE anti-human Fc, MFI; same fit as Table 6, which prints it in nM. The protocol:
(§2) The lead antibodies were tested for binding to renal carcinoma cells and glioblastoma cells expressing CD70 on the cell surface by flow cytometry. […] U251 cells were cultured with MEM medium containing of 10% FBS and 1% NEAA+1 mM sodium pyruvate. DBTRG-05MG cells were cultured with DMEM medium (Gibco, Cat #C11995500BT) containing of 10% FBS. Each of the lead antibodies and the controls were incubated for 30 mins with the different cell lines (3×10⁵ cells per well) in 0.2 ml FACS buffer (1×PBS with 0.1% BSA) at 4° C. Then, the cells were pelleted, washed, and incubated at 4° C. for 30 mins with 100 μl of 1:200 diluted PE-conjugated anti human Fc (Abcam, Ab98596) in FACS buffer. The cells were pelleted again, washed with PBS, resuspended in FACS buffer and analyzed by flow cytometer (Beckman, CytoFLEX).
(§3) Antibodies 2H8 and 2D2 had slightly higher binding ability to the cell lines than that of antibody 69A7.
(Flow cytometry measures light scatter and fluorescence of single cells or particles in a stream.)

For experiment [5], the target named is T5, CD70 ECD (antigen immobilized on the CM5 chip) (UniProt P32970 39-193).
T5 construct: extracellular domain; also called CD70 antigen
T5 sequence (looked up): T1 sequence (looked up)
Description: SPR (Biacore T200), CD70 ECD on CM5 chip. As for the experimental part:
The immobilization of antigen CD70 ECD was performed at 25° C. with HBS-EP as the running buffer. Sensor chip surface of flow cells 1, 4 were activated by freshly mixed 50 mmol/L N-Hydroxy succinimide (NHS) and 200 mmol/L 1-ethyl-3-(3-dimethylaminopropyl) carbodiimide hydrochloride (EDC) for 420s (10 μL/min). Afterwards, CD70 antigen diluted in 10 mmol/L NaAC (pH 4.5) was injected into flow cell 4 to achieve conjugation of the appropriate Response Unit, while flow cell 1 was set as a blank. After the amine coupling reaction, the remaining active coupling sites on chip surface were blocked by 420s injection of 1 mol/L ethanolamine hydrochloride.
The assay was performed at 25° C. and the running buffer was HBS-EP. Diluted antibodies were injected over the surface of flow cells 1 and 4 during the association phase, followed by injecting running buffer as the dissociation phase. All the data were processed using Biacore T200 Evaluation software version 3.1. Flow cell 1 and a blank injection of buffer in each cycle were used as a double reference for Response Units subtraction. Kinetic data of the interaction between the antibodies and CD70 antigen were obtained through affinity measurement.
(SPR reads the build-up and loss of mass on a sensor chip optically.)

Experiment [6] deals with T4, human CD70 expressed on the cell …. Briefly: flow cytometry on Caki-1 cells, PE anti-human Fc, MFI; same fit as Table 6, which prints it in nM. The protocol: as §2, §3
Experiment [7] has the same target. Briefly: flow cytometry on Caki-1 cells. The protocol:
as §2, §3

B1: 2E7, full IgG (antibody, V domains shown)
VH: QVQLQESGPGLVKPSETLSLTCTVSGGSVSSDYYYWSWIRQPPGKGLEWLGYIYYSGSTNYNPSLKSRVTISVDTSKNQFSLKLRSVTTADTAVYYCARGDGDFLGVCFDYWGQGTLVTVSS
VL: EIVLTQSPATLSLSPGERATLSCRASQSVSSYLAWYQQKPGQAPRLLIFDASNRATGIPARFSGSGSGTDFTLTISSLEPEDFAVYYCQQRSNWPLTFGGGTKVEIK
On to B1, for which the Kd – broadly, the constant that tells how readily two partners part at equilibrium – in experiment [1] stood at 0.979 nM; in experiment [2] it was 1.75 nM; in experiment [3] it was 1030 nM. Also, the results for the koff in experiment [1], in experiment [2] and in experiment [3] were 0.000357 s⁻¹, 0.0104 s⁻¹ and 0.121 s⁻¹, respectively. Besides, the values for the kon in experiment [1], in experiment [2] and in experiment [3] were 365000 M⁻¹ s⁻¹, 5.9e+06 M⁻¹ s⁻¹ and 117000 M⁻¹ s⁻¹, respectively. Moreover, the EC50 – broadly, the midpoint of the concentration-response curve – is 0.917 µg/mL in experiment [4], 0.421 µg/mL in experiment [6] and 2.81 nM in experiment [7]. In addition, the “fold greater affinity than parent antibody 69A7” value in experiment [5] was determined as 22 fold.
